This note sets out measurements from the supplement of paper PMC9170038.

For data set [1], the system named is MS2 coat protein. The data set is described as follows: apparent KD of MS2 coat protein; higher = weaker reporter binding. The settings on record: Eterna round: R107. The method, then: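 RNA-MaP round R107: designed RNA switches with theophylline, tryptophan, arginine or FMN aptamers are transcribed on-chip within common flanks. They are titrated with SNAP-549-labelled MS2 coat protein in RNA-MaP buffer (100 mM Tris pH 7.5, 80 mM KCl, 4 mM MgCl2), without ligand or with the indicated ligand. Median apparent KD per design.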

Data set [2] deals with MS2 coat protein. The data set is described as follows: apparent KD of MS2 coat protein; designed switch direction (-1 OFF switch, 1 ON switch): 1; higher = weaker reporter binding. The method in brief:
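An oligonucleotide input, 200 uM small-molecule ligand, or no input was present during titration of SNAP-549-labelled MS2 coat protein, which was doubled from 0.7 or 1.5 nM to 3 µM. Designed RNA switches had been transcribed on Illumina chips by stalled E. coli RNA polymerase. Apparent KD per design is the median over clusters of curves fitted to normalised cluster fluorescence.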

[3] abbreviates: input ligand: theophylline 20 uM.
Where [4] appears, read: input ligand: theophylline 2 mM.
[5] abbreviates: input ligand: tryptophan 2.4 mM.
The mark [6] stands for this setting: input ligand: microRNA oligo, concentration not stated.
Where [7] appears, read: Eterna round: R95, input ligand: FMN 200 uM.
Where [8] appears, read: Eterna round: R95, input ligand: microRNA oligo, concentration not stated.
Setting [9] is: Eterna round: R95, input ligand: none.

As for “AAUAAUAGGUGAUCUUGUGUCGUACCGUAACGAGGACCGGUACGGCCGCCACUCGAACAUGAGGAUCACCCAUGUAUGUAUGAUA [whbob_SS_trypto A_f7]”, the “apparent KD of MS2 coat protein” value stood at 57.8 nM in data set [1] (input ligand: arginine 13.2 mM), 301 nM in data set [1] (setting [3]) and 497 nM in data set [1] (setting [4]).

On to “AAUCAUAACUGAAGGAGCGUCUAUAUUACAUGAGGAUCACCCAUGUUUAUAUGGUAUUAUAGACAGGUAGGUCGCAGAUUUUUUA [JR_SSArginiB_Sub017]”, for which the “apparent KD of MS2 coat protein” value was found to be 20.7 nM in data set [1] (input ligand: arginine 13.2 mM); 16.8 nM in data set [1] (input ligand: none); 21.6 nM in data set [1] (setting [3]); 18.7 nM in data set [1] (setting [4]); 15.8 nM in data set [1] (setting [5]).

Turning to “AAUCGUAAGGCGGCCGCCACUACACAUGAGGAUCACCCAUGUCUCGCGGGCUUGCGUUGGGAUAGUAGGACCGGGCCAGUAAUAA [Exclusion - Tryptophan B (Freestyle 13)]”, the “apparent KD of MS2 coat protein” value in data set [1] (input ligand: arginine 13.2 mM) came out at 17.1 nM; in data set [1] (input ligand: none) it was 26.2 nM; in data set [1] (setting [3]) it was 33.7 nM; in data set [1] (setting [4]), 28.3 nM; in data set [1] (setting [5]) it was 25.1 nM.

On to “AAUGGCCGUACCGGAAGGGUGAUCCUCAAACGAGGACCGGUACGGCCGCCACUCGAUAACAUGAGGAUCACCCAUGUAAUACAUA [whbob_X-Trypto_V2.0]”, for which the results for the “apparent KD of MS2 coat protein” value in data set [1] (input ligand: arginine 13.2 mM), in data set [1] (setting [3]) and in data set [1] (setting [4]) were 96.4 nM, 405 nM and 699 nM, respectively.

Consider “AAUUACAUGAGGAUCACCCAUGUGGCACAACGAGGACCGGUACGGCCGCCACUCGGUGCUGUACCACAAAACAUGCACGGGAAAG [theeternabot_sameState_MS2_Trp_A_6]”, for which the “apparent KD of MS2 coat protein” value in data set [1] (input ligand: arginine 13.2 mM) came out at 33.1 nM; in data set [1] (input ligand: none), 31.6 nM; in data set [1] (setting [3]) it was 81.4 nM; in data set [1] (setting [4]), 39 nM; in data set [1] (setting [5]), 30.9 nM.

On to “UUGCGGGAUUAAGGAUAUUGAGUACAUAUGUUUAACAUGAGGAUCACCCAUGUGGGUUGCGGUAUCGAGAAGGUAACUUACUAC [salish99_SSNG2_r04_804] (Eterna round: R96, puzzle: Same State NG 2)”, for which the “apparent KD of MS2 coat protein” value in data set [2] (input ligand: FMN 200 uM) amounted to 92.9 nM; in data set [2] (setting [6]) it was 79.3 nM; in data set [2] (input ligand: none), 96.3 nM.

As to “UUGCGGGCUUGAGGAUAUUGAGUACAUAUGUUUAACAUGAGGAUCACCCAUGUGGGUUGCGGUAUCGAGAAGGUAACUUCCUCC [salish99_SSNG2_r04_809] (Eterna round: R96, puzzle: Same State NG 2)”, the figures for the “apparent KD of MS2 coat protein” value in data set [2] (input ligand: FMN 200 uM), in data set [2] (setting [6]) and in data set [2] (input ligand: none) were 169 nM, 124 nM and 163 nM, respectively.

Take “UUGCUCGUGUGAGGAUAUGCAGCCGUUUCGGCUGCAGAAGGUACUAUAAUACAUGAGGAUCACCCAUGUCUCUAUUAUUUAGUG [salish99_SSNG1_r04_926] (Eterna round: R96, puzzle: Same State NG 1)”: the “apparent KD of MS2 coat protein” value is 19.5 nM in data set [2] (input ligand: FMN 200 uM), 19.2 nM in data set [2] (setting [6]) and 28.7 nM in data set [2] (input ligand: none).

Consider “UUGUUUCGUCAUUAACAUGAGGAUCACCCAUGUAUCGACUCAAAGGAUAUAUAUGCUUGUUUGCAAUAGAAGGUUGAUUGUUGU [JR_SSNG3_Sub092] (Eterna round: R96, puzzle: Same State NG 3)”, for which the “apparent KD of MS2 coat protein” value in data set [2] (setting [6]) was 28.1 nM.

Turning to “UUUAAACAUGAGGAUCACCCAUGUCAACAAAGUCGAGGAUAUGGGCAAAUAAAAUAAGAACCAGAAGGCGAAUAAU [salish99_ss1_r3_068] (puzzle: Same State 1)”, the “apparent KD of MS2 coat protein” value was determined as 49.2 nM in data set [2] (setting [7]), 585 nM in data set [2] (setting [8]) and 334 nM in data set [2] (setting [9]).

Regarding “UUUACUUUCAUAGGAUAUCAUGCGAAAAUUGCGUGAGAAGGGUGCACACUGUCUUUCUAGGAGUACAUGAGGAUCACCCAUGUG [SameState NG1 #66] (Eterna round: R96, puzzle: Same State NG 1)”, the “apparent KD of MS2 coat protein” value was determined as 52.4 nM in data set [2] (input ligand: FMN 200 uM), 48.3 nM in data set [2] (setting [6]) and 50.9 nM in data set [2] (input ligand: none).

With “UUUAGCGUUACAGGAUAUGGUGAGGAUUACCCACUAGAAGGGUAAACAUGUGCGUCGUACAUGAGGAUCACCCAUGUAGGGCGU (Eterna round: R96, puzzle: Same State NG 1)”, the figures for the “apparent KD of MS2 coat protein” value in data set [2] (input ligand: FMN 200 uM), in data set [2] (setting [6]) and in data set [2] (input ligand: none) were 20.6 nM, 15.5 nM and 20.6 nM, respectively.

Regarding “UUUAGUUGCGCGCAGGAUAUGUAUUAAUAUACAUGAGGAUCACCCAUGUGAGACCAAAUAGGUCUGCAGAAGGGCGAAUCGCGAC [Laonerce - 28] (puzzle: Same State 2)”, the “apparent KD of MS2 coat protein” value in data set [2] (setting [7]) turned out to be 45.4 nM; in data set [2] (setting [8]), 139 nM; in data set [2] (setting [9]) it was 199 nM.

With “UUUAGUUGCGGGCAGGAUAUGUAUUAAAAUACAUGAGGAUCACCCAUGUGAGGUCAUAACGACCUACAGAAGGGCCAAUCGCGAC [Laonerce - 15] (puzzle: Same State 2)”, the “apparent KD of MS2 coat protein” value in data set [2] (setting [7]) was 17.2 nM; in data set [2] (setting [8]), 64.4 nM; in data set [2] (setting [9]), 86.1 nM.

Regarding “UUUAGUUGCGGGCAGGAUAUGUAUUAAUAUACAUGAGGAUCACCCAUGUGAGAUCGAAUAGAUCUACAGAAGGGCCAAUCGCGAC [Laonerce - 25] (puzzle: Same State 2)”, the “apparent KD of MS2 coat protein” value in data set [2] (setting [7]) turned out to be 19.8 nM; in data set [2] (setting [8]), 133 nM; in data set [2] (setting [9]), 188 nM.

On to “UUUAUAGGCGCAGGAUAUGGUGAGGAUCACCCACUAGAAGGGUGCACAUGAGAAUCGGACAUGAGGAUCACCCAUGUCCGGCGC (Eterna round: R96, puzzle: Same State NG 1)”, for which the results for the “apparent KD of MS2 coat protein” value in data set [2] (input ligand: FMN 200 uM), in data set [2] (setting [6]) and in data set [2] (input ligand: none) were 915 nM, 201 nM and 526 nM, respectively.

On to “UUUGCAUUGCAAGGAUAUUGAUAACAUGAGGAUCACCCAUGUAUAGGUUCAGGAUUUACGAGUAACAAGAAGGUGCUAUUGUUU [JR_SSNG2_Sub040] (Eterna round: R96, puzzle: Same State NG 2)”, for which the “apparent KD of MS2 coat protein” value in data set [2] (input ligand: FMN 200 uM) turned out to be 27.6 nM; in data set [2] (setting [6]) it was 20.7 nM; in data set [2] (input ligand: none), 31.8 nM.

Turning to “UUUGGGUGGCUGGAGGAUAUUCGAGUGGUAACAUGAGGAUCACCCAUGUGUCGCGCGGUACACGAGGAGAAGGCUGGCGGCCGUU (puzzle: Same State 2)”, the “apparent KD of MS2 coat protein” value in data set [2] (setting [8]) came to 41.7 nM.
